T1: Cynomolgus monkey CD98 ECD with C-terminal His-tag (cynomolgus monkey, UniProt P08195 105-529 (human entry))
T1 construct: also called cyCD98 ECD; recombinant cynomolgus monkey CD98 extracellular domain
T1 chain: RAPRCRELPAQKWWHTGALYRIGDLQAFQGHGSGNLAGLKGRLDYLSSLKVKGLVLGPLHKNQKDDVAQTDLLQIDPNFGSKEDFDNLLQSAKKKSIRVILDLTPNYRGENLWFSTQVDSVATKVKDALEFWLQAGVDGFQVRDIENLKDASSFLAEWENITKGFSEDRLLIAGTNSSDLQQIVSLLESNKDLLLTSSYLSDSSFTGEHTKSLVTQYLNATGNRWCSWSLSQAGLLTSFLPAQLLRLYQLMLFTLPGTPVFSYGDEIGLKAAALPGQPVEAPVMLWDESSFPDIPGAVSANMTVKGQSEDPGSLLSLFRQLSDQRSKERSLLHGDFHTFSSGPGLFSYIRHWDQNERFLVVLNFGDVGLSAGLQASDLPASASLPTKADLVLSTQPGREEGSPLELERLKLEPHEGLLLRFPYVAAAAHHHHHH

T2: Human CD98 ECD with C-terminal His-tag (human, UniProt P08195 105-529)
T2 construct: also called huCD98 ECD; recombinant human CD98 extracellular domain
T2 sequence: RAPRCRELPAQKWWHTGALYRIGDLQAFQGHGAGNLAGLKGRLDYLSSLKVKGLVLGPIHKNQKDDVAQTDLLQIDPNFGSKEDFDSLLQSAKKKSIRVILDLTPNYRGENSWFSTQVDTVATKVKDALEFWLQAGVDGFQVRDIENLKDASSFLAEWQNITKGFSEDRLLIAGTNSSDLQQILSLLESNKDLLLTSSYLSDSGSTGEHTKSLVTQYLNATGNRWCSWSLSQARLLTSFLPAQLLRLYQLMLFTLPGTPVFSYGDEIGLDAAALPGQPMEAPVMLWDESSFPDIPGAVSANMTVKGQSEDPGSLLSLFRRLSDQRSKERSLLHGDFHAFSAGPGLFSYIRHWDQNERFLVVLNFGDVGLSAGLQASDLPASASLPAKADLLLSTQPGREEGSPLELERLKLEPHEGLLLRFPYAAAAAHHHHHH

T3: Human CD98 expressed on stably transfected CHO-K1 cells (human)
T3 construct: also called huCD98; CD98 heavy chain
T3 chain: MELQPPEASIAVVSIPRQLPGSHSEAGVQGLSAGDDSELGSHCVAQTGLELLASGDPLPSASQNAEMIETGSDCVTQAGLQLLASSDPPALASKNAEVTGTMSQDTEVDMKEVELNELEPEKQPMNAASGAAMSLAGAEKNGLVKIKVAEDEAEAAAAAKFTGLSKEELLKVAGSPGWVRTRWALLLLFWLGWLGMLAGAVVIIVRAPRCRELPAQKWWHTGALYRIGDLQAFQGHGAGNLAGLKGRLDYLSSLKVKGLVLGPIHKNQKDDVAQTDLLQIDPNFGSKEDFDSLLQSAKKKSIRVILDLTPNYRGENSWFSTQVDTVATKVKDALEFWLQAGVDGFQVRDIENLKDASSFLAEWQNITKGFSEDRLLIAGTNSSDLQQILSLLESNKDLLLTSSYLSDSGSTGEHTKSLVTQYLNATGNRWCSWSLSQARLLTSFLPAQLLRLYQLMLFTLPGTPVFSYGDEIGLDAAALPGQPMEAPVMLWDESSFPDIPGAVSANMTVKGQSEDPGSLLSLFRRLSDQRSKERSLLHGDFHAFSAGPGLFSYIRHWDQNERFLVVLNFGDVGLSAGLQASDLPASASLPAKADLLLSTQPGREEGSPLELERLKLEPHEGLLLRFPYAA

T4: Human CD98 ECD with C-terminal His-tag (human, UniProt P08195 105-529)
T4 construct: The entry includes the linker and the polyhistidine tag; also called huCD98 ECD
T4 sequence: T2 sequence

T5: Cynomolgus monkey CD98 ECD with C-terminal His-tag (cynomolgus monkey, UniProt P08195 105-529 (human entry))
T5 construct: The entry includes the linker and the polyhistidine tag; also called cyCD98 ECD
T5 chain: T1 chain

B1: Recombinant anti-CD98 chimeric antibody chAb6 (antibody, human IgG1, V domains shown)
VH: QVQLKESGPGLAQPSQTLSLTCTVSGFSLSTYGVIWLRQPPGKGLEWMGVIWTNGNTNYNSTLKSRLSISRDTSESQVYLQMNSLQTEDTATYYCARHYYDGAYYYGYFDYWGQGVMVTVSS
VL: DIVMTQTPSSQAVSAGEKVTMSCKSSQSLLYSENKKNYLAWYQQKPGQSPKLLIYWASTRESGVPDRFIGSGSGTDFTLTISSVQAEDLAVYYCQQYYYFPYTFGAGTKLELK
B2: Recombinant anti-CD98 chimeric antibody chAb1 (antibody, human IgG1, V domains shown)
VH: EVKLVESGGGLVQPGGSLRLSCATSGFTFTDYYMSWVRQPPGKALEWLGFIRNPANVYTTEYSASVKGRFTISRDNSQSILYLQMNTLRAEDSATYYCARASYGNSEGWFAYWGQGTLVTVSA
VL: DIVMSQSPSSLAVSVGEKVTMSCKSSQNLLYNNNQKNYLAWYQQKPGQSPKLLIYWASTRESGVPDRFTGSGSGTDFTLTISSVKAEDLAVYYCQQYYSYPRTFGGGTKLEIK
B3: Recombinant anti-CD98 chimeric antibody chAb3 (antibody, human IgG1, V domains shown)
VH: EVKLVESGGGLVQPGNSLRLSCATSGFTFIDYYMSWVRQSPGKALEWLGFIRNKANGYTTEYSASVKGRFTISRDNSQSILYLQMDTLRAEDSATYYCTRDRPAWFVYWGQGTLVTVSA
VL: B2 VL with N28S, N32S, N33S, I81F, K85R, R102Y
B4: Recombinant anti-CD98 chimeric antibody chAb4 (antibody, human IgG1, V domains shown)
VH: B2 VH with A23T, P54K, N56T, V57I
VL: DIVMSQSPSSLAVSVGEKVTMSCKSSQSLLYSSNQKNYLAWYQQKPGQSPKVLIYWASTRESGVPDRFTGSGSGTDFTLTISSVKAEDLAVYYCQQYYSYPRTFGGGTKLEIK
B5: Recombinant anti-CD98 chimeric antibody chAb2 (antibody, human IgG1, V domains shown)
VH: B2 VH with T28N, P54K, V57G, N76D
VL: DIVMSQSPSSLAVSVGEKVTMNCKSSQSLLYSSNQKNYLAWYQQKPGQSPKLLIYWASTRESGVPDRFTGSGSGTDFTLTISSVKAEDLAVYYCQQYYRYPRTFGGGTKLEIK
B6: Recombinant anti-CD98 chimeric antibody chAb5 (antibody, human IgG1, V domains shown)
VH: B2 VH with S35T, P54K, V57G, Q78L, G104V
VL: B2 VL with N28S, N32S, N33S, P46L, Q96H
B7: huAb15v5 (antibody, V domains shown)
VH: EVQLVESGGGVVQPGRSLRLSCAASGFTFSDYTMAWVRQAPGKGLEWVATIIYTGRGTYYRDAVKGRFTISRDNSKSTLYLQMNSLRAEDTAVYYCARQSDDTYYYWGYFDYWGQGTMVTVSS
VL: DIVMTQSPDSLAVSLGERATINCKSSQSLLFSGNQKNYLAWYQQKPGQSPKLLIYWASTRQSGVPDRFSGSGSGTDFTLTIRSLQAEDVAIYYCQQYYSSPYTFGQGTKLEIK
notes: Humanized, further engineered clone of chAb15, converted to IgG and expressed as a full-length antibody
B8: huAb15v7 (antibody, V domains shown)
VH: B7 VH with T54D, G55A
VL: B7 VL with S99G
notes: as for B7
B9: huAb15v6 (antibody, V domains shown)
VH: B7 VH with T54D, G55A
VL: B7 VL
notes: as for B7

Numbering of substitutions follows the chain as printed.

The target of one test is T1, Cynomolgus monkey CD98 ECD with …. As to the kind of experiment: SPR Biacore, anti-Fc capture of mAb, CD98 ECD analyte. As for the experimental part:
(§1) The binding kinetics of these purified mouse and rat monoclonal anti-CD98 antibodies for purified recombinant CD98 protein (extracellular domain. ECD) were determined by surface plasmon resonance-based measurements made on Biacore T100/T200 instruments (GE Healthcare, Piscataway, N.J.) at 25° C. using an anti-Fc capture assay approach. Binding kinetic measurements were made in the assay buffer HBS-EP+: 10 mM Hepes, pH 7.4, 150 mM NaCl, 3 mM EDTA, 0.05% Tween 20). For example, approximately 8000 RU of anti-Fc (species specific) polyclonal antibody (Thermo Fisher Scientific Inc. Rockford, Ill.) diluted in 10 mM sodium acetate (pH 4.5) was directly immobilized across a CM5 research grade biosensor chip using a standard amine coupling kit according to manufacturer's instructions and procedures at 25 μg/ml. Unreacted moieties on the biosensor surface were blocked with ethanolamine. The test antibody to be captured as a ligand was diluted in running buffer to ˜0.5 μg/mL and injected over anti-Fc surface at a flow rate of 10 μL/min, CD98 binding and dissociation were observed under a continuous flow rate of 80 μL/min. Human and cynomolgus monkey CD98 ECDs, both with a C-terminal His-tag, are used for this study (Table 3). After each cycle the anti-Fc capture surface was regenerated using 10 mM Glycine-HCl, pH 1.5. During the assay, all measurements were referenced against the capture surface alone (i.e., with no captured test antibody) and buffer-only injections (no antigen) were used for double referencing. For kinetic analysis, rate equations derived from the 1:1 Langmuir binding model were fitted simultaneously, globally and with mass transfer term included to multiple referenced antigen binding curves using Biacore T100T200 Evaluation software.
(§2) Briefly, binding kinetics of anti-CD98 chimera mAbs for human and cynomolgus CD98 ECDs were determined by surface plasmon resonance-based measurements as described in Example 4.
(In general: Surface plasmon resonance follows binding to a sensor surface in real time, without labels.)
Take B1: the Kd was 7.9 nM, the off-rate constant (koff) was 0.00037 s⁻¹ and the on-rate constant (kon) stood at 47000 M⁻¹ s⁻¹.
For B2, in that order: 0.8 nM, 2.2e-05 s⁻¹ and 28000 M⁻¹ s⁻¹.
The corresponding values for B3 are 40 nM, 0.0016 s⁻¹ and 39000 M⁻¹ s⁻¹.
The corresponding values for B4 are 8.3 nM, 7.3e-05 s⁻¹ and 8800 M⁻¹ s⁻¹.
As for B5, the dissociation constant (Kd) stood at 58 nM, the koff was determined as 0.0011 s⁻¹ and the kon turned out to be 19000 M⁻¹ s⁻¹.
B6: the Kd is 25 nM, the off-rate (koff) turned out to be 0.00044 s⁻¹ and the kon came to 18000 M⁻¹ s⁻¹.

The target of the next test is T2, Human CD98 ECD with C-terminal His-tag. The description is as above. As for the experimental part:
as §1, §2
On to B1, for which binding was put at a Kd of 1.3 nM, the koff is 0.00014 s⁻¹ and the kon came out at 110000 M⁻¹ s⁻¹.
Regarding B2, the Kd is 0.21 nM, the dissociation rate constant (koff) is 1.5e-05 s⁻¹ and the on-rate (kon) stood at 68000 M⁻¹ s⁻¹.
Turning to B3, the Kd was found to be 21 nM, the koff was 0.0034 s⁻¹ and the kon worked out at 160000 M⁻¹ s⁻¹.
As to B4, binding was characterised by a dissociation constant (Kd) of 2.8 nM, the koff turned out to be 7.8e-05 s⁻¹ and the on-rate (kon) is 28000 M⁻¹ s⁻¹.
B5: the Kd was determined as 1.6 nM, the koff is 9.6e-05 s⁻¹ and the kon stood at 59000 M⁻¹ s⁻¹.
For B6, in that order: 7.5 nM, 0.0003 s⁻¹ and 40000 M⁻¹ s⁻¹.

The target of another test is T6, Cynomolgus monkey CD98 expressed on stably transfected 3T12 cells (cynomolgus monkey).
T6 construct: whole, on cells; also called cyCD98
The test can be described thus: flow cytometry, 3T12 cells expressing cynomolgus CD98. As for the experimental part:
(§3) Briefly, binding kinetics of anti-CD98 chimera mAbs for human and cynomolgus CD98 ECDs were determined by surface plasmon resonance-based measurements as described in Example 4. Table 10 reported the association and dissociation rate constants for CD98 binding, kₐ (M⁻¹s⁻¹) and kd (s⁻¹), and the equilibrium dissociation constant KD (M) of the interaction between antibodies and the target antigen. Binding of anti-CD98 chimera mAbs for CD98 on cell surface was evaluated by flow cytometry against CHO-K1 cell line stably transfected to express human CD98 and 3T12 cell line stably transfected to express cynomolgus monkey CD98.
(A flow cytometer gives signals particle by particle.)
Take B1: the EC50 worked out at 5.99 nM.
Molecule B2 gave an EC50 of 9.86 nM.
B3 showed an EC50 of 9.87 nM.
As to B4, a half-maximal response (EC50) required 17.2 nM.
On the same count and under the same terms, the figure for B5 is 12.7 nM; for B6 it is 24.2 nM.

In another test the target is T3, Human CD98 expressed on stably …. The test can be described thus: flow cytometry, CHO-K1 cells expressing human CD98. As for the experimental part: as §3
Consider B1, for which the EC50 worked out at 2.08 nM.
On the same count and under the same terms, the figure for B2 is 1.67 nM; for B3 it is 2.02 nM.
Consider B4, for which the EC50 was found to be 5.41 nM.
As to B5, the EC50 was found to be 3.84 nM.
For the molecule B6, the response was half-maximal at 3.25 nM (EC50).

The next test concerns the target T4, Human CD98 ECD with C-terminal His-tag. The test can be described thus: SPR (Biacore), antibody captured on anti-Fc surface, CD98 ECD in solution. As for the experimental part: as §1
(§4) The binding kinetics of the recombinant anti-CD98 chimeric antibodies for purified recombinant CD98 protein (extracellular domain, ECD) were determined by surface plasmon resonance-based measurements, as described in the Example 4.
With B7, the Kd turned out to be 3.1 nM, the koff is 0.00013 s⁻¹ and the on-rate constant (kon) turned out to be 41000 M⁻¹ s⁻¹.
B8 came in with an equilibrium dissociation constant (Kd) of 5.9 nM, a koff of 0.00021 s⁻¹ and a kon of 35000 M⁻¹ s⁻¹.
Take B9: the dissociation constant (Kd) amounted to 6.7 nM, the koff came out at 0.00026 s⁻¹ and the kon was found to be 38000 M⁻¹ s⁻¹.

A further test addresses T5, Cynomolgus monkey CD98 ECD with …. The test is described as above. As for the experimental part: as §1, §4
Consider B7, for which the Kd is 11 nM, the koff worked out at 0.00018 s⁻¹ and the kon was 17000 M⁻¹ s⁻¹.
Turning to B8, the Kd stood at 30 nM, the koff stood at 0.00043 s⁻¹ and the on-rate constant (kon) was determined as 14000 M⁻¹ s⁻¹.
The corresponding values for B9 are 34 nM, 0.00049 s⁻¹ and 14000 M⁻¹ s⁻¹.

For orientation: Kd means the free concentration of one partner at which half of the binding sites on the other are occupied at equilibrium, for simple one-to-one binding. Usually koff stands for the first-order rate constant of dissociation. The kon is a measure of how fast the partners come together. What is called EC50 is the concentration at which the effect is half-maximal.

The values are drawn from patent publication US20200147235A1 (AbbVie / Abbott, published 2020).
